This test deals with nascent, unphosphorylated PKC species (PDK1 binding, Fig. S9C) (UniProt P68403).

B1: PDK1 (enzyme)
chain: MARTTSQLYDAVPIQSSVVLCSCPSPSMVRTQTESSTPPGIPGGSRQGPAMDGTAAEPRPGAGSLQHAQPPPQPRKKRPEDFKFGKILGEGSFSTVVLARELATSREYAIKILEKRHIIKENKVPYVTRERDVMSRLDHPFFVKLYFTFQDDEKLYFGLSYAKNGELLKYIRKIGSFDETCTRFYTAEIVSALEYLHGKGIIHRDLKPENILLNEDMHIQITDFGTAKVLSPESKQARANSFVGTAQYVSPELLTEKSACKSSDLWALGCIIYQLVAGLPPFRAGNEYLIFQKIIKLEYDFPEKFFPKARDLVEKLLVLDATKRLGCEEMEGYGPLKAHPFFESVTWENLHQQTPPKLTAYLPAMSEDDEDCYGNYDNLLSQFGCMQVSSSSSSHSLSASDTGLPQRSGSNIEQYIHDLDSNSFELDLQFSEDEKRLLLEKQAGGNPWHQFVENNLILKMGPVDKRKGLFARRRQLLLTEGPHLYYVDPVNKVLKGEIPWSQELRPEAKNFKTFFVHTPNRTYYLMDPSGNAHKWCRKIQEVWRQRYQSHPDAAVQ
In turn, B1 showed a fold binding relative to the phosphorylated form of 2 fold.
